The results in this text go back to patent US20170218081A1.

For orientation: Kd means the equilibrium constant for the complex coming apart. A lower Kd goes with higher affinity.

The assay has as its target Bovine submaxillary mucin (bovine). Description: SPR, BSM immobilised on CM5 chip.

Substance CC49.scFv had a Kd of 30 nM.
